Paper PMC8488672 (Proceedings of the National Academy of Sciences of the …, 2021)

T1: full-length CD248 transiently expressed on cells (UniProt Q9HCU0 18-757)
T1 sequence: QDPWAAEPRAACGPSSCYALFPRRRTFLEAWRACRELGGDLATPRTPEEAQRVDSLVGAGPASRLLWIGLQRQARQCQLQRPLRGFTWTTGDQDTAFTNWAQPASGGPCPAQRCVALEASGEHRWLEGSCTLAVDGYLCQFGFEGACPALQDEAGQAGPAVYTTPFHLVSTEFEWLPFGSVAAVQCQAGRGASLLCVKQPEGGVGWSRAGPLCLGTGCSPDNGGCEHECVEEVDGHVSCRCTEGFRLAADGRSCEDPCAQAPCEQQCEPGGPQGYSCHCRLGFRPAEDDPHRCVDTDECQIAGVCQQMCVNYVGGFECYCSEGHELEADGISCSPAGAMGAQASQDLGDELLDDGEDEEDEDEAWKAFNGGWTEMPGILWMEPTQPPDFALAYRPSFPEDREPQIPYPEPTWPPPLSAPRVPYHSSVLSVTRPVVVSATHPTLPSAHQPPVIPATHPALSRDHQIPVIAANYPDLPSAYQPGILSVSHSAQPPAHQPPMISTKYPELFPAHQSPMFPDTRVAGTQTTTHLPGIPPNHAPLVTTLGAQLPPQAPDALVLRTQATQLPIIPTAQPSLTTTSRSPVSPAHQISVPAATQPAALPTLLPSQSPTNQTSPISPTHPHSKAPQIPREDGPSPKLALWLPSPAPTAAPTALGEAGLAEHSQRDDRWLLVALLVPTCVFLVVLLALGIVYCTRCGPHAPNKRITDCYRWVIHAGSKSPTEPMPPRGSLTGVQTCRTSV

T2: gD-GPI CD248 transiently expressed on cells (UniProt Q9HCU0 18-687, glycosylphosphatidylinositol (GPI) lipid anchor)
T2 sequence: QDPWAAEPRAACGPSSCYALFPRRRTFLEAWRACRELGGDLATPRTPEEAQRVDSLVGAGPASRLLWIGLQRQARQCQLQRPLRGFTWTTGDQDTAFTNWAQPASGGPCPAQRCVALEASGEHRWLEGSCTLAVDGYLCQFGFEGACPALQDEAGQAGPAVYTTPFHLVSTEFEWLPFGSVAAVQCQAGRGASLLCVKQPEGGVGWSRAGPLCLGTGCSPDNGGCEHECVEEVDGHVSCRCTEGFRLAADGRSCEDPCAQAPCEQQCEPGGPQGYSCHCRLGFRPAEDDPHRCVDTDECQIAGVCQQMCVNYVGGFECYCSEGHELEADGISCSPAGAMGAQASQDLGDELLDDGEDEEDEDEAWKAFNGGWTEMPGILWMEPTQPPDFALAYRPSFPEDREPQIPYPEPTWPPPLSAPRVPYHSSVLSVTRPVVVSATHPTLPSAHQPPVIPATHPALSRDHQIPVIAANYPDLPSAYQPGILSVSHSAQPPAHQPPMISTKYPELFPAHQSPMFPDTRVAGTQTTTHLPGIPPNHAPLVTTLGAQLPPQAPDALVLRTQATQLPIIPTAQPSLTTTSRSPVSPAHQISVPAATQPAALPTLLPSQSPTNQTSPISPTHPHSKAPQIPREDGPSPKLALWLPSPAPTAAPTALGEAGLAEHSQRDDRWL


What was measured:
Assay in all cases: fluorescence microscopy of rEV binding to transfected cells
[1] = target: gD-GPI CD248 transiently expressed on cells (UniProt Q9HCU0)
[2] = target: T1, full-length CD248 transiently expressed …
[3] = target: T2, gD-GPI CD248 transiently expressed on …

| fold binding over cells transfected with an empty vector control [1] [fold] | fold binding over cells transfected with an empty vector control [2] [fold] | fold binding over cells transfected with an empty vector control [3] [fold] | Molecule |
| --- | --- | --- | --- |
| > 10 | – | – | gD-GPI–tagged LRRC15 ectodomain displayed on rEVs (from UniProt Q8TF66 22-538) (domain or fragment) |
| – | > 10 | > 10 | full-length LRRC15 displayed on rEVs (receptor) YHGCPSECTCSRASQVECTGARIVAVPTPLPWNAMSLQILNTHITELNESPFLNISALIALRIEKNELSRITPGAFRNLGSLRYLSLANNKLQVLPIGLFQGLDSLESLLLSSNQLLQIQPAHFSQCSNLKELQLHGNHLEYIPDGAFDHLVGLTKLNLGKNSLTHISPRVFQHLGNLQVLRLYENRLTDIPMGTFDGLVNLQELALQQNQIGLLSPGLFHNNHNLQRLYLSNNHISQLPPSVFMQLPQLNRLTLFGNSLKELSPGIFGPMPNLRELWLYDNHISSLPDNVFSNLRQLQVLILSRNQISFISPGAFNGLTELRELSLHTNALQDLDGNVFRMLANLQNISLQNNRLRQLPGNIFANVNGLMAIQLQNNQLENLPLGIFDHLGKLCELRLYDNPWRCDSDILPLRNWLLLNQPRLGTDTVPVCFSPANVRGQSLIIINVNVAVPSVHVPEVPSYPETPWYPDTPSYPDTTSVSSTTELTSPVEDYTDLTTIQVTDDRSVWGMTQAQSGLAIAAIVIGIVALACSLAACVGCCCCKKRSQAVLMQMKAPNEC |
| – | > 10 | – | gD-GPI–tagged LRRC15 ectodomain displayed on rEVs (domain or fragment, glycosylphosphatidylinositol (GPI) lipid anchor) YHGCPSECTCSRASQVECTGARIVAVPTPLPWNAMSLQILNTHITELNESPFLNISALIALRIEKNELSRITPGAFRNLGSLRYLSLANNKLQVLPIGLFQGLDSLESLLLSSNQLLQIQPAHFSQCSNLKELQLHGNHLEYIPDGAFDHLVGLTKLNLGKNSLTHISPRVFQHLGNLQVLRLYENRLTDIPMGTFDGLVNLQELALQQNQIGLLSPGLFHNNHNLQRLYLSNNHISQLPPSVFMQLPQLNRLTLFGNSLKELSPGIFGPMPNLRELWLYDNHISSLPDNVFSNLRQLQVLILSRNQISFISPGAFNGLTELRELSLHTNALQDLDGNVFRMLANLQNISLQNNRLRQLPGNIFANVNGLMAIQLQNNQLENLPLGIFDHLGKLCELRLYDNPWRCDSDILPLRNWLLLNQPRLGTDTVPVCFSPANVRGQSLIIINVNVAVPSVHVPEVPSYPETPWYPDTPSYPDTTSVSSTTELTSPVEDYTDLTTIQVTDDRSVWGMTQAQSG |
